{"source": "patent US20260274955A1", "about": "(JANUX THERAPEUTICS, published 2026)", "binders": {"B1": {"name": "anti-CD28 Fab (Fab, V domains shown)", "VH": "QVQLVQSGAEVKKPGASVKVSCKASGYTFTSYYIHWVRQAPGQGLEWIGSIYPGNVNTNYNEKFKDRATLTVDTSISTAYMELSRLRSDDTAVYFCTRSHYGLDWNFDVWGQGTTVTVSS", "VL": "not shown"}}, "key": {"Ab-1 [1]": {"biological_target": "T1, Ab-1", "T1 construct": "also called anti-CD28 scFv harbored in Ab-1", "test": "competition ELISA, peptide titrated vs 1 nM Ab-1 binding plate-bound CD28"}, "Ab-1 [2]": {"biological_target": "T1, Ab-1", "test": "BLI (Octet), peptide on sensor, Ab-1 titrated, 1:1 model"}, "Ab-1 [3]": {"biological_target": "T1, Ab-1", "test": "BLI (Octet), 200 nM peptide, 100 nM Ab-1;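 as to t1/2: association and dissociation phases tracked in real time, with kinetics fitted to a 1:1 interaction model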"}, "Ab-1 [4]": {"biological_target": "T1, Ab-1", "test": "BLI (Octet), 20 nM peptide, 100 nM Ab-1"}, "Ab-1 [5]": {"biological_target": "T1, Ab-1", "test": "binding ELISA, peptide captured, Ab-1 titrated"}, "Ab-1 [6]": {"biological_target": "T1, Ab-1", "test": "binding ELISA, peptide captured, Ab-1 titrated", "remark": "listed apart in the source"}, "[7]": {"biological_target": "T2, anti-CD28 Fab (SEQ ID NOs: 202, 203)", "T2 construct": "biotinylated when captured in the phage ELISAs", "test": "binding ELISA, peptide captured, anti-CD28 Fab titrated"}, "Ab-1 [8]": {"biological_target": "T1, Ab-1", "test": "competition ELISA, peptide titrated vs 1 nM Ab-1 binding plate-bound CD28", "remark": "listed apart in the source"}, "Ab-1 [9]": {"biological_target": "T1, Ab-1", "test": "BLI (Octet), 200 nM peptide, 100 nM Ab-1", "remark": "listed apart in the source"}, "anti-CD28 Fab": {"biological_target": "B1", "test": "competition ELISA, alanine scan of Peptide-44, Fab binding plate-bound CD28"}, "Peptide-78": {"biological_target": "T3, Peptide-78 (cysteine pairing not given here; also: biotinylated, site not given here)", "T3 construct": "optimization library of Peptide-39", "T3 peptide": "YCEGHLPEYREKCL", "test": "BLI, peptide on sensor, Fab in solution, 1:1 model"}, "Peptide-84": {"biological_target": "T4, Peptide-84 (cysteine pairing not given here; also: biotinylated, site not given here)", "T4 construct": "optimization library of Peptide-39", "T4 peptide": "YCEGHLPEYRNKCL", "test": "BLI, peptide on sensor, Fab in solution, 1:1 model"}, "Peptide-72": {"biological_target": "T5, Peptide-72 (cysteine pairing not given here; also: biotinylated, site not given here)", "T5 construct": "optimization library of Peptide-39", "T5 peptide": "YCEGHLPEYIEKCL", "test": "BLI, peptide on sensor, Fab in solution, 1:1 model"}, "Peptide-79": {"biological_target": "T6, Peptide-79 (cysteine pairing not given here; also: biotinylated, site not given here)", "T6 construct": "optimization library of Peptide-39", "T6 peptide": "YCEGHLPEYLAKCL", "test": "BLI, peptide on sensor, Fab in solution, 1:1 model"}, "Peptide-86": {"biological_target": "T7, Peptide-86 (cysteine pairing not given here; also: biotinylated, site not given here)", "T7 construct": "optimization library of Peptide-39", "T7 peptide": "YCEGHLPEYIQKCL", "test": "BLI, peptide on sensor, Fab in solution, 1:1 model"}, "Peptide-73": {"biological_target": "T8, Peptide-73 (cysteine pairing not given here; also: biotinylated, site not given here)", "T8 construct": "optimization library of Peptide-39", "T8 peptide": "YCEGHAPEYIAKCL", "test": "BLI, peptide on sensor, Fab in solution, 1:1 model"}, "Peptide-39": {"biological_target": "T9, Peptide-39 (cysteine pairing not given here; also: biotinylated, site not given here)", "T9 construct": "synthetic peptide", "T9 peptide": "YCAGHAWQYINKCL", "test": "BLI, peptide on sensor, Fab in solution, 1:1 model"}, "Ab-1 [10]": {"biological_target": "T1, Ab-1", "test": "BLI (Octet), peptide on sensor, Ab-1 titrated, 1:1 model", "remark": "listed apart in the source"}, "[11]": {"biological_target": "T2, anti-CD28 Fab (SEQ ID NOs: 202, 203)", "test": "binding ELISA, peptide captured, anti-CD28 Fab titrated", "remark": "listed apart in the source"}, "[12]": {"biological_target": "T10, anti-CD28 scFv wt Vh-linker-Vl (biotinylated (site not stated))", "T10 construct": "captured on neutravidin plates", "test": "phage ELISA on captured scFv, CD28 as competitor"}, "[13]": {"biological_target": "T11, anti-CD28 scFv (SEQ ID NO: 35)", "T11 construct": "also called anti-CD28 scFv wt Vh-linker-Vl", "test": "phage binding ELISA, scFv on plate, CD28 as competitor"}, "[14]": {"biological_target": "T12, anti-CD28 scFv (SEQ ID NO: 35)", "T12 construct": "also called anti-CD28 scFv wt Vh-linker-Vl; human anti-CD28 scFv", "test": "BLI (Octet)"}}, "note": "Where two headings read alike, the source gives them in different places. No end group written: not given here."}
{"binder": "MDWCPRDLWVHCFA (cysteine pairing not given here; also: biotinylated, site not given here)", "note": "[Peptide-1]", "values": [{"measurement": "IC50", "setting": "Ab-1 [1]", "value": 0.2, "unit": "µM"}, {"measurement": "Kd", "setting": "Ab-1 [2]", "value": 0.0151, "unit": "µM"}, {"measurement": "t1/2", "setting": "Ab-1 [2]", "value": 930, "unit": "s"}, {"measurement": "Octet signal (200 nM peptide)", "setting": "Ab-1 [3]", "value": 1.8}, {"measurement": "Octet signal (20 nM peptide)", "setting": "Ab-1 [4]", "value": 0.509}, {"measurement": "EC50", "setting": "Ab-1 [5]", "value": 0.001, "unit": "µM"}, {"measurement": "EC50", "setting": "Ab-1 [6]", "value": 0.004, "unit": "µM"}, {"measurement": "EC50", "setting": "[7]", "value": 0.49, "unit": "µM"}, {"measurement": "IC50", "setting": "Ab-1 [8]", "value": 0.06, "unit": "µM"}, {"measurement": "Octet signal", "setting": "Ab-1 [9]", "value": 2.03}, {"measurement": "t1/2", "setting": "Ab-1 [9]", "value": 588, "unit": "s"}]}
{"binder": "VPWCQIISGLECLT (cysteine pairing not given here; also: biotinylated, site not given here)", "note": "[Peptide-25]", "values": [{"measurement": "IC50", "setting": "Ab-1 [1]", "value": "> 100", "unit": "µM"}, {"measurement": "Octet signal (200 nM peptide)", "setting": "Ab-1 [3]", "value": 0.166}, {"measurement": "EC50", "setting": "Ab-1 [5]", "value": 0.0549, "unit": "µM"}]}
{"binder": "SCAAGASYAWPYCL (cysteine pairing not given here; also: biotinylated, site not given here, synthetic peptide)", "values": [{"measurement": "IC50", "setting": "anti-CD28 Fab", "value": 7890, "unit": "µM"}]}
{"binder": "SCAAGASYAWPACL", "note": "[Peptide-57]", "values": [{"measurement": "IC50", "setting": "anti-CD28 Fab", "value": 13000, "unit": "µM"}]}
{"binder": "SCAAGASYAWPYCA", "note": "[Peptide-58]", "values": [{"measurement": "IC50", "setting": "anti-CD28 Fab", "value": 76400, "unit": "µM"}]}
{"binder": "ACAAGASYAWPYCL", "note": "[Peptide-51]", "values": [{"measurement": "IC50", "setting": "anti-CD28 Fab", "value": 21000, "unit": "µM"}]}
{"binder": "SCAAGAAYAWPYCL", "note": "[Peptide-53]", "values": [{"measurement": "IC50", "setting": "anti-CD28 Fab", "value": 7420, "unit": "µM"}]}
{"binder": "ACDTYFAGMINECF (cysteine pairing not given here; also: biotinylated, site not given here)", "note": "[Peptide-31]", "values": [{"measurement": "EC50", "setting": "[7]", "value": 0.097, "unit": "µM"}]}
{"binder": "B1", "values": [{"measurement": "Kd", "setting": "Peptide-78", "value": 0.141, "unit": "µM"}, {"measurement": "koff", "setting": "Peptide-78", "value": 0.0191, "unit": "s⁻¹"}, {"measurement": "kon", "setting": "Peptide-78", "value": 135000, "unit": "M⁻¹ s⁻¹"}, {"measurement": "t½", "setting": "Peptide-78", "value": 36, "unit": "s"}, {"measurement": "Kd", "setting": "Peptide-84", "value": 0.11, "unit": "µM"}, {"measurement": "koff", "setting": "Peptide-84", "value": 0.0138, "unit": "s⁻¹"}, {"measurement": "kon", "setting": "Peptide-84", "value": 125000, "unit": "M⁻¹ s⁻¹"}, {"measurement": "t½", "setting": "Peptide-84", "value": 48, "unit": "s"}, {"measurement": "Kd", "setting": "Peptide-72", "value": 0.926, "unit": "µM"}, {"measurement": "koff", "setting": "Peptide-72", "value": 0.0239, "unit": "s⁻¹"}, {"measurement": "kon", "setting": "Peptide-72", "value": 25800, "unit": "M⁻¹ s⁻¹"}, {"measurement": "t½", "setting": "Peptide-72", "value": 30, "unit": "s"}, {"measurement": "Kd", "setting": "Peptide-79", "value": 0.0447, "unit": "µM"}, {"measurement": "koff", "setting": "Peptide-79", "value": 0.0118, "unit": "s⁻¹"}, {"measurement": "kon", "setting": "Peptide-79", "value": 264000, "unit": "M⁻¹ s⁻¹"}, {"measurement": "t½", "setting": "Peptide-79", "value": 60, "unit": "s"}, {"measurement": "Kd", "setting": "Peptide-86", "value": 0.0402, "unit": "µM"}, {"measurement": "koff", "setting": "Peptide-86", "value": 0.0115, "unit": "s⁻¹"}, {"measurement": "kon", "setting": "Peptide-86", "value": 286000, "unit": "M⁻¹ s⁻¹"}, {"measurement": "t½", "setting": "Peptide-86", "value": 60, "unit": "s"}, {"measurement": "Kd", "setting": "Peptide-73", "value": 0.831, "unit": "µM"}, {"measurement": "koff", "setting": "Peptide-73", "value": 0.028, "unit": "s⁻¹"}, {"measurement": "kon", "setting": "Peptide-73", "value": 33700, "unit": "M⁻¹ s⁻¹"}, {"measurement": "t½", "setting": "Peptide-73", "value": 24, "unit": "s"}, {"measurement": "Kd", "setting": "Peptide-39", "value": 2.02, "unit": "µM"}, {"measurement": "koff", "setting": "Peptide-39", "value": 0.0202, "unit": "s⁻¹"}, {"measurement": "kon", "setting": "Peptide-39", "value": 10000, "unit": "M⁻¹ s⁻¹"}, {"measurement": "t½", "setting": "Peptide-39", "value": 36, "unit": "s"}]}
{"binder": "IYWCPIDRWNDCYN (cysteine pairing not given here; also: biotinylated, site not given here)", "note": "[Peptide-26]", "values": [{"measurement": "IC50", "setting": "Ab-1 [1]", "value": 0.41, "unit": "µM"}, {"measurement": "Octet signal (200 nM peptide)", "setting": "Ab-1 [3]", "value": 0.705}, {"measurement": "EC50", "setting": "Ab-1 [5]", "value": 0.0076, "unit": "µM"}]}
{"binder": "IDWCPRYLWDECYN (cysteine pairing not given here; also: biotinylated, site not given here)", "note": "[Peptide-23]", "values": [{"measurement": "IC50", "setting": "Ab-1 [1]", "value": 0.14, "unit": "µM"}, {"measurement": "Kd", "setting": "Ab-1 [10]", "value": 0.016, "unit": "µM"}, {"measurement": "t1/2", "setting": "Ab-1 [10]", "value": 546, "unit": "s"}, {"measurement": "Octet signal (200 nM peptide)", "setting": "Ab-1 [3]", "value": 1.52}, {"measurement": "EC50", "setting": "Ab-1 [5]", "value": 0.0021, "unit": "µM"}]}
{"binder": "SCAAGASYAWPYCL (cysteine pairing not given here; also: biotinylated, site not given here)", "values": [{"measurement": "EC50", "setting": "[11]", "value": 0.0189, "unit": "µM"}, {"measurement": "EC50", "setting": "[7]", "value": 0.054, "unit": "µM"}]}
{"binder": "IDWCPTAGWTYCWF", "note": "[Phage-1513]", "values": [{"measurement": "CD28 scFv signal in presence of CD28", "setting": "[12]", "value": 0.075}]}
{"binder": "YCAGHAWQYINKCL (cysteine pairing not given here; also: biotinylated, site not given here)", "note": "[Peptide-39]", "values": [{"measurement": "EC50", "setting": "[7]", "value": 0.049, "unit": "µM"}]}
{"binder": "IHLCHWVPWIKCSH", "note": "[Phage-1664]", "values": [{"measurement": "CD28 scFv signal in presence of CD28", "setting": "[13]", "value": 2.51}]}
{"binder": "YCAGHSPINIGKCL (cysteine pairing not given here; also: biotinylated, site not given here)", "note": "[Peptide-36]", "values": [{"measurement": "EC50", "setting": "[7]", "value": 0.337, "unit": "µM"}]}
{"binder": "GYCHYWGDMVMWCG (cysteine pairing not given here; also: biotinylated, site not given here, biotinylated for capture in BLI)", "note": "[Peptide-118]", "values": [{"measurement": "binding result", "setting": "[14]", "value": "binds"}]}
